B1: SIINFEKL, 8-mer ovalbumin (OVA) peptide (peptide)
peptide: SIINFEKL
notes: It is the positive control for HLA.A2 upregulation and the negative control for killing

The target in the first assay is T1, HLA.A2 on T2 mutant cells.
T1 construct: MHC class I molecule on the T2 cell surface; also called HLA.A2.1; class I on T2 cells
Put plainly: T2 cell HLA.A2 upregulation assay, flow cytometry.
For the molecule TSAPDTR (also called 7 mer TSA . . . peptide) [TSAPDTR, MUC-1 synthetic 7 mer], the binding result is listed as “no binding (tested: 50 µM/well)”. As for B1, the binding result is “binds”.

The target in a further assay is T1, HLA.A2 on T2 mutant cells. Put plainly: T2 cell HLA.A2 upregulation assay, flow cytometry with MA2.1.
For APDTRPAPG [APDTRPAPG, MUC-1 tandem repeat synthetic 9 mer], the “% Change in mean channel intensity” value stood at 66%.

Take PDTRPAPGS [PDTRPAPGS, MUC-1 tandem repeat synthetic 9 mer]: the “% Change in mean channel intensity” value stood at 3%. Still for that read-out and setting: then TSAPDTRPA (also called TSA 9 mer; 9 mers TSA . .) [TSAPDTRPA, MUC-1 tandem repeat synthetic 9 mer], with 256%; and GVTSAPDTR [GVTSAPDTR, MUC-1 tandem repeat synthetic 9 mer], with 12%.

VTSAPDTRP [VTSAPDTRP, MUC-1 tandem repeat synthetic 9 mer]: the “% Change in mean channel intensity” value turned out to be 29%. Still for that read-out and setting: the value for DTRPAPGST [DTRPAPGST, MUC-1 tandem repeat synthetic 9 mer] was 52%.

The record behind these values is patent US6600012 (BIOMIRA, dated 2003).
